# Laboratory results from paper PMC10832047.
# Molecular target: HIV-1 capsid protein (CA), wild type (HIV-1 (NL4-3 / R9 clones))
substance,measurement,value
owl-monkey TRIMCyp (natural protein),"TRIMCyp restriction assay: infectivity of control pseudoviruses with pure CA^WT cores in TZM-bl cells expressing TRIMCyp, 48 h (fold reduction in infection)",10
